This passage reports Kd results from PMC2689706.

Bounds are passed on as bounds.

The target in the experiment is bacterially expressed GST-tagged eRF3 (UniProt P15170). Description: not stated; unpublished data; bacterially expressed GST-tagged eRF3 with partner translated in rabbit reticulocyte lysate.

For “rabbit reticulocyte-lysate-translated hUpf1 (from UniProt Q92900 1-1129) (natural protein)”, the Kd was over 1000 nM.
With “rabbit reticulocyte-lysate-translated PABPC1 (from UniProt P11940 1-636) (natural protein)”, the Kd turned out to be 5 nM.

By Kd is commonly meant a measure of binding affinity in units of concentration. Low readings indicate tighter binding, high ones weaker binding.
